One molecule from publication PMC6602295, “Structural mechanism for guanylate-binding proteins (GBPs) targeting by the Shigella E3 ligase IpaH9.8” (PLoS Pathogens, 2019) can be followed below.

This assay has as its target T1, GBP1^LG-MD (LG-MD region of guanylate-binding protein 1, residues 1-479) (human, UniProt P32455 1-479).
T1 construct: also called C-terminally truncated GBP1; source: E. coli BL21(DE3), purified (Ni-NTA, ULP1 cleavage, second Ni-NTA, Superdex 200); not shown: His6-SUMO, N-terminal, cleaved
T1 sequence: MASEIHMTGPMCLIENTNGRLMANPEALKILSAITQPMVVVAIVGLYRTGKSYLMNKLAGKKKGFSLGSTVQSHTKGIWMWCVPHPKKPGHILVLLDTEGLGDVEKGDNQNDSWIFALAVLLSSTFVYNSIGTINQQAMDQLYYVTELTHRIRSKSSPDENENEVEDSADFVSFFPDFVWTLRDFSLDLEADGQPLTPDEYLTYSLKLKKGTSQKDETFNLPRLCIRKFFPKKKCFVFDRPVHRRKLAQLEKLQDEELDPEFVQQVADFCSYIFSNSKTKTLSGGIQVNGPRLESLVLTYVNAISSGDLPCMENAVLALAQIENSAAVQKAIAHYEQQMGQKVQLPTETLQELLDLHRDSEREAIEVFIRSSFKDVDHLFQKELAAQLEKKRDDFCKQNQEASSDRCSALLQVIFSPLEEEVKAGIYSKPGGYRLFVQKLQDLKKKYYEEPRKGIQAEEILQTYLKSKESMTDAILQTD
Put plainly: crystal structure; purified IpaH9.8^LRR and GBP1^LG-MD incubated overnight on ice at a 1.5:1 molar ratio, passed through Superdex 200 (25 mM Tris-HCl pH 8.0, 20 mM NaCl, 2 mM DTT), no nucleotide; crystals at 20°C in 1.6 M sodium/potassium phosphate pH 6.5; 3.6 Å. The note with it: both partners purified.

B1: IpaH9.8^LRR (Leucine-rich repeat domain of IpaH9.8, residues 22-252) (domain or fragment)
chain: TYADYFSAWDKWEKQALPGEERDEAVSRLKECLINNSDELRLDRLNLSSLPDNLPAQITLLNVSYNQLTNLPELPVTLKKLYSASNKLSELPVLPPALESLQVQHNELENLPALPDSLLTMNISYNEIVSLPSLPQALKNLRATRNFLTELPAFSEGNNPVVREYFFDRNQISHIPESILNLRNECSIHISDNPLSSHALPALQRLTSSPDYHGPRIYFSMSDGQQNTLHR
notes: E3 ubiquitin ligase IpaH9.8, Shigella flexneri, LRR domain, residues 22-252; source: E. coli BL21(DE3), purified (Ni-NTA, ULP1 cleavage, second Ni-NTA, Superdex 200); not shown: His6-SUMO, N-terminal, cleaved
As for B1, the binding result is given as “binds”.
